# Data taken from patent US12612465B2, “Formulations comprising PCSK9 specific monoclonal antibodies” (Amgen Inc., priority 2012, dated 2026).
# B1: 21B12: human anti-PCSK9 monoclonal antibody, light/heavy variable region SEQ ID NO 23/49 (antibody, listed as Homo sapiens, V domains shown)
# VH: QVQLVQSGAEVKKPGASVKVSCKASGYTLTSYGISWVRQAPGQGLEWMGWVSFYNGNTNYAQKLQGRGTMTTDPSTSTAYMELRSLRSDDTAVYYCARGYGMDVWGQGTTVTVSS
# VL: QSALTQPASVSGSPGQSITISCTGTSSDVGGYNSVSWYQQHPGKAPKLMIYEVSNRPSGVSNRFSGSKSGNTASLTISGLQAEDEADYYCNSYTSTSMVFGGGTKLTVL
# Legend:
# LDLR = LDLR levels in HepG2 and HepG2-PCSK9 cells with mevinolin (immunoblot); type: cell-based, human; details: 48 hours
# Method: HepG2 cells were seeded in DMEM with 10% fetal bovine serum (FBS) and grown to ˜90% confluence. The cells were treated with indicated amounts of mevinolin (a statin, Sigma) and PCSK9 ABPs (FIGS. 12A-12C) in DMEM with 3% FBS for 48 hours. Total cell lysates were prepared. […] of total proteins were separated by gel electrophoresis and transferred to PVDF membrane. Immunoblots were performed using rabbit anti-human LDL receptor antibody (Fitzgerald) or rabbit anti-human b-actin antibody. The enhanced chemiluminescent results are shown in the top panels of FIGS. 12A-12C. The intensity of the bands were quantified by ImageJ software and normalized by b-actin. The relative levels of LDLR are shown in the lower panels of FIGS. 12A-12C.
# HepG2-PCSK9 cells were also created. These were stable HepG2 cell line transfected with human PCSK9. The cells were seeded in DMEM with 10% fetal bovine serum (FBS) and grew to ˜90% confluence. The cells were treated with indicated amounts of mevinolin (Sigma) and PCSK9 ABPs (FIGS. 12D-12F) in DMEM with 3% FBS for 48 hours. Total cell lysates were prepared. […] of total proteins were separated by gel electrophoresis and transferred to PVDF membrane Immunoblots were performed using rabbit anti-human LDL receptor antibody (Fitzgerald) or rabbit anti-human b-actin antibody. […] The intensity of the bands were quantified by ImageJ software and normalized by b-actin.
# PCSK9 = molecular target: T1, PCSK9 (Homo sapiens, UniProt Q8NBP7); assay: 12 week study in hypercholesterolemic patients unable to tolerate a statin (Example 23); type: in vivo; details: statin-intolerant, preliminary
# T1 construct: endogenous in cells; host or cells: human subjects, in vivo
# Method: It is planned to enroll 150 subjects. […] Randomization will be stratified by screening LDL-C level (<130 mg/dL [3.4 mmol/L] vs ≥130 mg/dL) and statin use at baseline (yes vs no). Randomization should occur within 5-10 days of the screening LDL-C evaluation used to determine eligibility. Monoclonal antibody, 21B12, and placebo will be blinded. Ezetimibe is not blinded. Study visits are at weeks 2, 4, 8, and 12. […] The end-of-study visit and the last evaluation of lipids is at week 12.
# Males and females, ≥18 to ≤75 years of age, are eligible for this study. Subject must have tried at least 1 statin and have been unable to tolerate any dose or an increase in statin dose above the following total weekly maximum doses due to myalgia or myopathy: atorvastatin ≤70 mg, simvastatin ≤140 mg, pravastatin ≤140 mg, rosuvastatin ≤35 mg, lovastatin ≤140 mg, fluvastatin ≤280 mg. For unlisted statins, the maximal total weekly dose should not exceed 7 times the smallest available tablet size. Symptoms must have resolved when statin was discontinued or the dose reduced. If receiving statin (not exceeding the maximal dose defined above), bile-acid sequestering resin, and/or stanol therapy, the dose(s) must be stable for at least 4 weeks prior to LDL-C screening. If the subject is on ezetimibe at start of screening, ezetimibe must be discontinued for ≥4 weeks before LDL-C screening. Depending on their risk category (based on NCEP ATP III treatment goals) subjects must meet the following fasting LDL-C (by central laboratory) criteria at screening: ≥100 mg/dL (2.6 mmol/L) for subjects with diagnosed coronary heart disease (CHD) or CHD risk equivalent; ≥130 mg/dL (3.4 mmol/L) for subjects without diagnosed CHD or risk equivalent and 2 or more risk factors; ≥160 mg/dL (4.1 mmol/L) for subjects without diagnosed CHD or risk equivalent and with 1 or no risk factors. Fasting triglycerides must be ≤400 mg/dL (4.5 mmol/L) as determined by the central laboratory analysis at screening.
# [1] = 280 mg Q4W SC, end of dosing interval
# [2] = 350 mg Q4W SC, end of dosing interval
# T1 sequence (Q8NBP7 153-692): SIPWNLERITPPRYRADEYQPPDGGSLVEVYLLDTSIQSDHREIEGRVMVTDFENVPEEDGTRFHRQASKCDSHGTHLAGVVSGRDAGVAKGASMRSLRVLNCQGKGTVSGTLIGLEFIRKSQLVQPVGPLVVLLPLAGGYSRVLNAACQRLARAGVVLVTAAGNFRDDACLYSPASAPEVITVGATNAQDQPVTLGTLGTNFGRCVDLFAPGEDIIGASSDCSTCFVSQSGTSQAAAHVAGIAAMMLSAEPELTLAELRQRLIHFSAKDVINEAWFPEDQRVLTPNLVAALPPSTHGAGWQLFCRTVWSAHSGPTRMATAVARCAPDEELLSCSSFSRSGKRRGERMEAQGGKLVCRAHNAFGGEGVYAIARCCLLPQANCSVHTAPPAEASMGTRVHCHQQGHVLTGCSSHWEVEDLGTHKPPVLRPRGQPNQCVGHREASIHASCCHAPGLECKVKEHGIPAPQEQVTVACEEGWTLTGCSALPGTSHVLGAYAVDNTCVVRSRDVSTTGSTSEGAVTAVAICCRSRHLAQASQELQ
molecule,measurement,setting,value
B1,LDLR levels compared with the non-neutralizer 25A7.1,LDLR,greater increase in LDLR levels
same,LS mean percent increase from baseline in HDL-C,PCSK9; [1],8.62%
same,LS mean percent reduction from baseline in LDL-C,PCSK9; [1],38.79%
same,LS mean percent reduction from baseline in Lp(a),PCSK9; [1],27.38%
same,LS mean percent reduction from baseline in VLDL-C,PCSK9; [1],31.02%
same,LS mean percent reduction from baseline in non-HDL-C,PCSK9; [1],39.92%
same,LS mean percent reduction from baseline in total cholesterol,PCSK9; [1],31.03%
same,LS mean percent reduction from baseline in triglycerides,PCSK9; [1],15.35%
same,LS mean percent increase from baseline in HDL-C,PCSK9; [2],4.62%
same,LS mean percent reduction from baseline in LDL-C,PCSK9; [2],40.01%
same,LS mean percent reduction from baseline in Lp(a),PCSK9; [2],16.04%
same,LS mean percent reduction from baseline in VLDL-C,PCSK9; [2],38.14%
same,LS mean percent reduction from baseline in non-HDL-C,PCSK9; [2],42.86%
same,LS mean percent reduction from baseline in total cholesterol,PCSK9; [2],34.46%
same,LS mean percent reduction from baseline in triglycerides,PCSK9; [2],19.22%
same,LS mean percent increase from baseline in HDL-C,PCSK9; 420 mg Q4W SC,7.55%
same,LS mean percent reduction from baseline in LDL-C,PCSK9; 420 mg Q4W SC,50.63%
same,LS mean percent reduction from baseline in Lp(a),PCSK9; 420 mg Q4W SC,23.84%
same,LS mean percent reduction from baseline in VLDL-C,PCSK9; 420 mg Q4W SC,37.27%
same,LS mean percent reduction from baseline in non-HDL-C,PCSK9; 420 mg Q4W SC,53.49%
same,LS mean percent reduction from baseline in total cholesterol,PCSK9; 420 mg Q4W SC,42.23%
same,LS mean percent reduction from baseline in triglycerides,PCSK9; 420 mg Q4W SC,19.55%
